In article PMC5318444:

Tests used:
[1] = biological target: T1, ArcA (Escherichia coli (uropathogenic CFT073?)) (UniProt P0A9Q2); assay: EMSA; settings: 10 mM Tris pH 7.5, 1 mM EDTA, 1 mM DTT, 50 mM KCl, 50 mM MgCl2, 1 ug/ml BSA; 10 nM DNA, protein 0-240 nM; 30 min room temperature (ArcA, RpoN) …
T1 sequence: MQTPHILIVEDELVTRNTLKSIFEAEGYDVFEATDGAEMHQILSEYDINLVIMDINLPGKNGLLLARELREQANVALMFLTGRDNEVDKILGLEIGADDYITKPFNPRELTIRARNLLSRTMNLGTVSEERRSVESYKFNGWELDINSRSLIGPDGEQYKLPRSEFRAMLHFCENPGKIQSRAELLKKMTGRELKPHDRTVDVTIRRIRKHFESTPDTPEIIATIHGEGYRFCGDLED

[2] = system: RpoN (sigma54) (Escherichia coli (CFT073?)), ORF:8ae15e91; assay: EMSA; settings: 10 mM Tris pH 7.5, 1 mM EDTA, 1 mM DTT, 50 mM KCl, 50 mM MgCl2, 1 ug/ml BSA; 10 nM DNA, protein 0-240 nM; 30 min room temperature (ArcA, RpoN) …

Row | Sequence | binding [1] | binding [2]
1 | ATCTGTGTGGTAAGAGAATCACCTTTTATTTACTGTGCGGAAAACCGCGCACAAAATAAAAAGAATAAATAATAAAATCATTAAATAACAAAGCGTTATTAAAAAATTAAAGATGGCATAGCTCCTGCAATAGCCAGGCAGGTTTTTTATTTTTCACAATGAGGTGAATATGTCATCAATATCCCATGGCGCACCACAAAAGCGTCGAATTATCCCTAATCCCGGCCTGTGGTT (double strand) [c5038 promoter probe] | no binding | binds
2 | ATGTTAAGCATGATAACGCCTTTTAGGGGCAATTTAAAAGTTGGCACAGATTTCGCTTTATCTTTTTTACGGCGACACGGCCCATTTAATTGCAGATTTCGTTACCACGACGACAATGACCAATCCAGGAGAGTTAAAGTATGTCCGCTGAACACGTACTGACGATGCTGAACGAGCACGAAGTGAAGTTTGTTG (double strand) [glnA promoter probe] | – | binds
3 | GGCGCGTCTTATACTCCCACATAAGCCAGATTCAACAGCGAATACGTCTTCCCCAAATTGCCCACTTCCATACTTCCTCCTTACCAGAAATCTATCCTTAAGCTCCTTAATAACCATTTTCCTGCTAACTAAATTCATGGTTAAGGTTGCATAATGATATGCAACAAATGTATAACATTTTTCTTACCAAAAAATAAACAAAAGCGACCGACAAAAGCATTGGATTACGGCAGGAG (double strand) [kgtP promoter probe] | binds | –
4 | TGCGCAATTGTACTTATTGCATTTTTCTCTTCGAGGAATTACCCAGTTTCATCATCCCATTTTATTTTGCGAGCGAGCGCACACTTGTGAATTATCTCAATAGCAGTGTGAAATAACATAATTGAGCAACTGAAAGGGAGTGCCCAATATTACGACATCATCCATCACCCGCGGCATTACCTGATTATGGAGTTCAATATGCAAGCCT (double strand) [xylA promoter probe] | – | no binding
